From the supplement of paper PMC9112550, “Optimization of the antimicrobial peptide Bac7 by deep mutational scanning” (BMC Biology, 2022)

Test system: Escherichia coli TOP10
Test: shrunken log2 fold change of peptide-encoding DNA abundance (4.5 h post-induction vs induction); higher = less antimicrobial activity (less host growth inhibition)
Conditions: time post-induction: 4.5 h; library: site-saturation at positions 5, 18, 19, 20
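Note: peptides expressed intracellularly from a pBAD plasmid library in pooled LB shake-flask culture, induced with 0.3% L-arabinose, DNA abundance read by NGS, three biological replicates, DESeq2 with apeglm shrinkage.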

Sequence	shrunken log2 fold change
RRIRDRPPRLPRPRPRPLCSPRP	0.513
RRIRDRPPRLPRPRPRPLDIPRP	0.0227
RRIRDRPPRLPRPRPRPLFCPRP	0.208
RRIRDRPPRLPRPRPRPLHQPRP	0.302
RRIRDRPPRLPRPRPRPLIQPRP	0.365
RRIRDRPPRLPRPRPRPLKGPRP	-0.0274
RRIRDRPPRLPRPRPRPLKHPRP	-0.927
RRIRDRPPRLPRPRPRPLKLPRP	0.0229
RRIRDRPPRLPRPRPRPLNMPRP	0.111
RRIRDRPPRLPRPRPRPLPPPRP	0.306
RRIRDRPPRLPRPRPRPLQFPRP	0.0246
RRIRDRPPRLPRPRPRPLRWPRP	0.274
RRIRDRPPRLPRPRPRPLVHPRP	0.265
RRIRDRPPRLPRPRPRPLVPPRP	0.249
RRIRDRPPRLPRPRPRPLVVPRP	0.102
RRIRDRPPRLPRPRPRPLYIPRP	-0.266
RRIRDRPPRLPRPRPRPMCGPRP	1.12
RRIRDRPPRLPRPRPRPMCQPRP	0.0359
RRIRDRPPRLPRPRPRPMDNPRP	-0.0115
RRIRDRPPRLPRPRPRPMFFPRP	0.125
RRIRDRPPRLPRPRPRPMGGPRP	0.0169
RRIRDRPPRLPRPRPRPMGVPRP	0.0778
RRIRDRPPRLPRPRPRPMHIPRP	-0.11
RRIRDRPPRLPRPRPRPMHMPRP	-0.0583
RRIRDRPPRLPRPRPRPMIAPRP	0.732

Sequence	shrunken log2 fold change
RRIRDRPPRLPRPRPRPMILPRP	-0.111
RRIRDRPPRLPRPRPRPMIQPRP	-0.103
RRIRDRPPRLPRPRPRPMLLPRP	0.307
RRIRDRPPRLPRPRPRPMLWPRP	0.015
RRIRDRPPRLPRPRPRPMMIPRP	0.0818
RRIRDRPPRLPRPRPRPMNAPRP	-0.0396
RRIRDRPPRLPRPRPRPMNKPRP	-0.381
RRIRDRPPRLPRPRPRPMPNPRP	-0.258
RRIRDRPPRLPRPRPRPMQTPRP	0.0424
RRIRDRPPRLPRPRPRPMRYPRP	0.104
RRIRDRPPRLPRPRPRPMSEPRP	-0.00582
RRIRDRPPRLPRPRPRPMVGPRP	0.564
RRIRDRPPRLPRPRPRPMVMPRP	0.133
RRIRDRPPRLPRPRPRPMWNPRP	0.108
RRIRDRPPRLPRPRPRPMWWPRP	-0.0122
RRIRDRPPRLPRPRPRPMYIPRP	-0.148
RRIRDRPPRLPRPRPRPNANPRP	0.000903
RRIRDRPPRLPRPRPRPNAYPRP	-0.043
RRIRDRPPRLPRPRPRPNCDPRP	-0.144
RRIRDRPPRLPRPRPRPNDIPRP	-0.211
RRIRDRPPRLPRPRPRPNDMPRP	-0.104
RRIRDRPPRLPRPRPRPNECPRP	0.0169
RRIRDRPPRLPRPRPRPNFQPRP	0.151
RRIRDRPPRLPRPRPRPNFTPRP	-0.0368
RRIRDRPPRLPRPRPRPNFWPRP	0.375

Sequence	shrunken log2 fold change
RRIRDRPPRLPRPRPRPNGNPRP	-0.169
RRIRDRPPRLPRPRPRPNHKPRP	-0.661
RRIRDRPPRLPRPRPRPNHNPRP	-0.539
RRIRDRPPRLPRPRPRPNHVPRP	-0.242
RRIRDRPPRLPRPRPRPNIFPRP	-0.0871
RRIRDRPPRLPRPRPRPNIPPRP	-0.623
RRIRDRPPRLPRPRPRPNKIPRP	-0.457
RRIRDRPPRLPRPRPRPNKKPRP	-0.117
RRIRDRPPRLPRPRPRPNKLPRP	-0.277
RRIRDRPPRLPRPRPRPNMNPRP	-0.41
RRIRDRPPRLPRPRPRPNQAPRP	-0.0261
RRIRDRPPRLPRPRPRPNQIPRP	-0.044
RRIRDRPPRLPRPRPRPNRLPRP	0.0873
RRIRDRPPRLPRPRPRPNSWPRP	-0.12
RRIRDRPPRLPRPRPRPNTDPRP	-0.179
RRIRDRPPRLPRPRPRPNTHPRP	-0.292
RRIRDRPPRLPRPRPRPNTSPRP	-0.284
RRIRDRPPRLPRPRPRPNWMPRP	-0.0161
RRIRDRPPRLPRPRPRPNWQPRP	0.00408
RRIRDRPPRLPRPRPRPNYYPRP	-0.305
RRIRDRPPRLPRPRPRPPACPRP	0.0727
RRIRDRPPRLPRPRPRPPASPRP	0.513
RRIRDRPPRLPRPRPRPPCFPRP	0.35
RRIRDRPPRLPRPRPRPPCWPRP	0.407
RRIRDRPPRLPRPRPRPPDNPRP	-0.272
